Experimental findings from IntAct's records for PubMed 17919502 are described below.

The chains are these.
B1: Copper-transporting ATPase 2 (Homo sapiens), P35670 (parent)
chain: MPEQERQITAREGASRKILSKLSLPTRAWEPAMKKSFAFDNVGYEGGLDGLGPSSQVATSTVRILGMTCQSCVKSIEDRISNLKGIISMKVSLEQGSATVKYVPSVVCLQQVCHQIGDMGFEASIAEGKAASWPSRSLPAQEAVVKLRVEGMTCQSCVSSIEGKVRKLQGVVRVKVSLSNQEAVITYQPYLIQPEDLRDHVNDMGFEAAIKSKVAPLSLGPIDIERLQSTNPKRPLSSANQNFNNSETLGHQGSHVVTLQLRIDGMHCKSCVLNIEENIGQLLGVQSIQVSLENKTAQVKYDPSCTSPVALQRAIEALPPGNFKVSLPDGAEGSGTDHRSSSSHSPGSPPRNQVQGTCSTTLIAIAGMTCASCVHSIEGMISQLEGVQQISVSLAEGTATVLYNPSVISPEELRAAIEDMGFEASVVSESCSTNPLGNHSAGNSMVQTTDGTPTSVQEVAPHTGRLPANHAPDILAKSPQSTRAVAPQKCFLQIKGMTCASCVSNIERNLQKEAGVLSVLVALMAGKAEIKYDPEVIQPLEIAQFIQDLGFEAAVMEDYAGSDGNIELTITGMTCASCVHNIESKLTRTNGITYASVALATSKALVKFDPEIIGPRDIIKIIEEIGFHASLAQRNPNAHHLDHKMEIKQWKKSFLCSLVFGIPVMALMIYMLIPSNEPHQSMVLDHNIIPGLSILNLIFFILCTFVQLLGGWYFYVQAYKSLRHRSANMDVLIVLATSIAYVYSLVILVVAVAEKAERSPVTFFDTPPMLFVFIALGRWLEHLAKSKTSEALAKLMSLQATEATVVTLGEDNLIIREEQVPMELVQRGDIVKVVPGGKFPVDGKVLEGNTMADESLITGEAMPVTKKPGSTVIAGSINAHGSVLIKATHVGNDTTLAQIVKLVEEAQMSKAPIQQLADRFSGYFVPFIIIMSTLTLVVWIVIGFIDFGVVQRYFPNPNKHISQTEVIIRFAFQTSITVLCIACPCSLGLATPTAVMVGTGVAAQNGILIKGGKPLEMAHKIKTVMFDKTGTITHGVPRVMRVLLLGDVATLPLRKVLAVVGTAEASSEHPLGVAVTKYCKEELGTETLGYCTDFQAVPGCGIGCKVSNVEGILAHSERPLSAPASHLNEAGSLPAEKDAVPQTFSVLIGNREWLRRNGLTISSDVSDAMTDHEMKGQTAILVAIDGVLCGMIAIADAVKQEAALAVHTLQSMGVDVVLITGDNRKTARAIATQVGINKVFAEVLPSHKVAKVQELQNKGKKVAMVGDGVNDSPALAQADMGVAIGTGTDVAIEAADVVLIRNDLLDVVASIHLSKRTVRRIRINLVLALIYNLVGIPIAAGVFMPIGIVLQPWMGSAAMAASSVSVVLSSLQLKCYKKPDLERYEAQAHGHMKPLTASQVSVHIGMDDRWRDSPRATPWDQVSYVSQVSLSSLTSDKPSRHSAAADDDGDKWSLLLNGRDEEQYI

Variants of B1 are the subject of the assay. Conditions: with comd1_human COMMD1, Q8N668.
comd1_human COMMD1, Q8N668, sequence (Q8N668 whole entry): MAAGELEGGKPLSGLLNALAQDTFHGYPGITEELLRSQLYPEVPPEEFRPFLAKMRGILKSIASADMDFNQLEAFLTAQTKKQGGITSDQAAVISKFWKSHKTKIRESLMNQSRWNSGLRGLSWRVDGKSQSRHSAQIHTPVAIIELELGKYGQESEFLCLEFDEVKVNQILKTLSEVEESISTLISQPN
Consider E541K, for which the “effect of a mutation on the interaction” value was “increasing interaction strength”.

Take G85V: the “effect of a mutation on the interaction” value is “increasing interaction strength”.

Regarding G591D, the “effect of a mutation on the interaction” value is reported as “increasing interaction strength”.

G284V: the “effect of a mutation on the interaction” value was “increasing interaction strength”.

Consider M645R, for which the “effect of a mutation on the interaction” value is “decreasing interaction strength”.

With L641S, the “effect of a mutation on the interaction” value was “with no effect”.

A604P: the “effect of a mutation on the interaction” value is given as “decreasing interaction strength”.

N41S: the “effect of a mutation on the interaction” value is “increasing interaction strength”.

For the variant G170V, the “effect of a mutation on the interaction” value was “increasing interaction strength”.

Consider G515V, for which the “effect of a mutation on the interaction” value is “increasing interaction strength”.

Take G626A: the “effect of a mutation on the interaction” value is reported as “decreasing interaction strength”.

For Y532H, the “effect of a mutation on the interaction” value is reported as “increasing interaction strength”.

On to L492S, for which the “effect of a mutation on the interaction” value was “with no effect”.

Take A486S: the “effect of a mutation on the interaction” value is “increasing interaction strength”.

On to D642H, for which the “effect of a mutation on the interaction” value is listed as “decreasing interaction strength”.

Take G386V: the “effect of a mutation on the interaction” value was “increasing interaction strength”.

For R616Q, the “effect of a mutation on the interaction” value is listed as “increasing interaction strength”.

In the case of R616W, the “effect of a mutation on the interaction” value is given as “increasing interaction strength”.
